Laboratory results taken from paper PMC4362353.

Target: recombinant adeno-associated virus-6 vector particle (rAAV6 capsid) (adeno-associated virus 6)
Experiment: co-sedimentation

B1: secreted human Galectin 3-binding protein from HEK293 culture medium (natural protein)
chain: VNDGDMRLADGGATNQGRVEIFYRGQWGTVCDNLWDLTDASVVCRALGFENATQALGRAAFGQGSGPIMLDEVQCTGTEASLADCKSLGWLKSNCRHERDAGVVCTNETRSTHTLDLSRELSEALGQIFDSQRGCDLSISVNVQGEDALGFCGHTVILTANLEAQALWKEPGSNVTMSVDAECVPMVRDLLRYFYSRRIDITLSSVKCFHKLASAYGARQLQGYCASLFAILLPQDPSFQMPLDLYAYAVATGDALLEKLCLQFLAWNFEALTQAEAWPSVPTDLLQLLLPRSDLAVPSELALLKAVDTWSWGERASHEEVEGLVEKIRFPMMLPEELFELQFNLSLYWSHEALFQKKTLQALEFHTVPFQLLARYKGLNLTEDTYKPRIYTSPTWSAFVTDSSWSARKSQLVYQSRRGPLVKYSSDYFQAPSDYRYYPYQSFQTPQHPSFLFQDKRVSWSLVYLPTIQSCWNYGFSCSSDELPVLGLTKSGGSDRTIAYENKALMLCEGLFVADVTDFEGWKAAIPSALDTNSSKSTSSFPCPAGHFNGFRTVIRPFYLTNSSGVD
B1 showed a percent of rAAV6 in the pellet fraction (2,000 g, 10 minutes) of 70% and a percent of rAAV6 in the precipitate (10,000 g, 30 minutes) of 90%.
